Source: the domain aggregation screens of Martell et al. (2025)

Test: soluble fraction after stress (log2 fold change); higher = more stays soluble; pooled small domains, quantitative proteomics
Conditions: stress: pH 4
Summary of the method: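 Values are log2 fold changes, and higher ones mean more of the domain stayed soluble. Each fold change reflects the soluble amount of a domain after acid stress and is taken as a measure of aggregation propensity. The stress was pH 4, applied to pooled custom libraries of small protein domains analysed by high-throughput quantitative proteomics.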

Row | Sequence | soluble fraction (log2)
1 | HMAESSLPKMPRDESKYIYHSVQPGETVYSLSKRYSVSESDIVKSNPGIDITKLSLGLEVAIPRI | 0.0402
2 | HMAEVAFEEQNIEQISNLLLRIQAIFAELMTALDKEKGGEIADNLERLYVFFLEKLGDANVRKDPAP | -0.135
3 | HMAEVHVDGVTYQFSNPEQAVKFARKIAKELGLKVEVHGETVHVK | 0.0901
4 | HMAEVTLTVREQEVLHLLARGMSNGEMAAHLYVEPTTIKYHLTGLLQKTGSRDRLQAVLWGIRAGMVH | -1.15
5 | HMAEWIYGKNVVKQSIEEGMVLKLILQRKEDPLFVLAQEKQIPVEILDRHKMTSLVKSDRHQGVAAQI | -0.645
6 | HMAFEDYAGEYRSAADFAESLHEDTGTEIPESLRYYIDWQALARDMALNGEIMVFQTGFDEVHIFWS | -0.878
7 | HMAFEITSAERTRLEDIARKGLTAYTAEWKQLPASEKKALNKTGLQDFLKSMAADADSAREEEA | 0.0412
8 | HMAFKEQLKAARLAKGYTQEQLATAIGVAKSTFTGYEKGNSEPNMLTIKKLMEILEVDANYLWY | -1.44
9 | HMAFRWQQIADTITSMIANGSYPRGSRLPTEAALADSFGVNRHTVRRAVAALRDTGLVQPRQGAGVFVIG | -0.103
10 | HMAFYQDIAVDLRKQIIDGVYPKNSRLPNQAELAKLYTTSRVTIQKALKILQIEGLIEGRQGSGSYVKGP | 0.0757
11 | HMAGHKVDFSELPARSQAFIGKNFPTEMVKNVEMERKDAKDHYTVLLSNGTKVMFDGTSGELTGV | 0.0825
12 | HMAGISQGLAENVERRITTLLREQKEVPVHDIDFPGISRETVGQVLHQMVQEEKLLLDDGMISLSPNQ | -0.229
13 | HMAGPAGASEVANARDGDDETPLHMAARGGYPGIVRMLLAAGAKADAKSAAGLFPWNYAEDGSELHALLPR | -0.0731
14 | HMAGPTIVTNSQGVPNYHLVKRGDTVSQIAQRYGLNYRQIGAINNLDSKYTIYSGQWLKLWQG | -0.00755
15 | HMAGQWQQDQNGWKYKTDNGDHMKNTWYQDSDSRWYYFGPDGYMKSSTMTPDGYVVGSDGAWIE | -1.63
16 | HMAGSGDLNAKYLASIPAPMKAKILKAVANHYGVSISEFEEEVTDKDAEALYEYIPTRSMAVQVLRDMKG | 0.199
17 | HMAGSGLPVPRFVSLADDRVNARAGPGFRFPINWVYLRKGFPVEVVDEFGPWRRIRDIDGVAAWIHLSMLS | -0.848
18 | HMAGTAFPVRIMLKGIDRIGLLNEITGYISVAMGVNMRKLNLSTEDGIFEGYIDMLVHDRTVLESMIDNL | 0.22
19 | HMAGTELASIKEIQSLVDRSEEALSARNFFWPKDKSESMLLSFRNMFSRLKLTKMDVQIFHGIFKVMEKS | 0.0341
20 | HMAGVSVTSLTTFWRLAADTPDTPSGADDPSGWSRTEPSIPDGYEGKLYRTIRTIMSDGTATWTSPD | 0.0531
21 | HMAGYDTYMVDRDAELLPWLLETLQRESRSKVKATLQGNGIKVNGKRVTQFNYPLKAGMKVSVSKSK | 0.129
22 | HMAHILDLMELKQILRLHMDGLSNRRISDTLGIHRNTINSYVSQFKASKHGIEELLKLSDYELAQLFP | -1.39
23 | HMAHRYQQIADDLGRRVEAGEFAAGRLLPSEATLSGQYKASRVTVRKALEALRTDGLVESRQGFGWFVAAD | 0.262
24 | HMAIADQPISAEHFDKLRQVLNSNTQETIASAKQHWASISNNAEFTNENVTRTLLEEMLAFIKSAS | -0.887
25 | HMAIDVQELARTRLRSLRTTLGYSLDELAARTHLSPSTISRLETGKRSLSLDVVVPLAQALHVSLDVLFEA | -0.666
26 | HMAIEGIFEKYQRRSDQLIPILQDVQKEFGYIAPESVRHISRYLRISENQIFGVSSFYAQFRFT | -0.422
27 | HMAIGTDPETGISVVADGTDFIWTRSGATSTIFLRLDSENSYILNVKQGDFEVIDYELGEGQENAINIDQS | -0.463
28 | HMAIPEVDPAKQGVSATQLAALDALAHRNAGEGRVAGMVNVVIRNGEIVYYKATGPRHIDGGAPLKSTDLF | 0.0394

Row | Sequence | soluble fraction (log2)
29 | HMAIQGVRLYERTLETGDPWLDRPLSTLSTGTRLIILVRRGGDVLIPKGDTVLLAGDTLVINDS | -1.94
30 | HMAIRPDAAVSSHAVKQRLQSLIRAEDPAAPLSDEALRLALSALGIGVSRRAVAKYRAEMGIPSSSQRKK | 0.168
31 | HMAISQYGSQSDEVTKIQTRLKAWGYFDGPVTAYYGSQTTEAVKKFQQKHGLSATGVADAKTLELIGLP | 0.056
32 | HMAITLEQFLSVNPHIRNNLYGNAVELVKDKDFSVLSDKLKASSKWANEPSLYKILSHYDEIIS | 0.207
33 | HMAKDSQSADVLQAIFDGSKVLNGLALDQDMRWDLINGLVMSGRLGVEAIEAEAAKLAKLVEELEFR | -1.21
34 | HMAKETLRANIKDYIQKQIASGVYRPGDRIVETQLAREMNVSQAPVREAILELVSLGLLEERPYSGHMVRQ | -0.843
35 | HMAKIKVFELKNQINSLIKNKIESKDIIDFIETNFGVKKSHSSALEENEANFIKNYFVHADKA | -0.141
36 | HMAKIPASTVVEIDGAPVVVAVRVNARARSYRLSIPHSGGPLLTLPPHGKWAEAEAFLLRHHNWLAARLHR | 0.22
37 | HMAKQEPTDNGYDIYKVTASVLNVRNGAGTSYAVAYQLSKEDYVEVVSIDKGWAKLKDGKYVSADWITLYK | -0.596
38 | HMAKRINVKLIMELSAGGLTQNEIASSRHFSKTSVNLVLKTARELNVSAADLREMSPEEAYRLFFPEK | -0.0837
39 | HMAKRKTEKTSVLEEIDGVGKARARALLARFGGLSGVKAASPEELRTVRGITPEIAENIRRYFQ | 0.134
40 | HMAKRMRNPNGYGSIVKLSGNRRNPYMVKVNTHMDERYYPVYDILGYYPTWADASIALAKYNDDPYNVS | 0.0269
41 | HMAKRQATIVYEGTNVRSGPSTSSAIVKRTGKGESYPIVSTKGDWYEIKLSNGDSAYVASWVVQTVD | -0.871
42 | HMAKRYFVTTGVRVRTKPDTANSEVLTVLDEGSEIDYKGDYNNEWVKINYNGQEAYIAKQYVRSEE | -0.13
43 | HMAKSDLNYLDFKSKLEAGEIAKASVIRNEDTFKVTLQNGEVYNVTSPDYEDFRKELLEAGVDIQVSK | 0.022
44 | HMAKSMRHLIVPSRETSLWRDKLSTNGWLSKGYGIHNLDDYRGIPLNETAPKIIEGLEITELEPIS | -0.755
45 | HMAKTALEQAQAMVAAYVAAEQQILLGKEVRMGGPGIDRWLRFEDLQEVRAGRKEWESTVTRLQNTAA | -0.769
46 | HMAKTGMDALVGRRVVLTKAIAGEGEGLVAVDGDVWRATSPAGSAIPKGTEVRITGYRSIVLEVEPI | 0.139
47 | HMAKYEVVAKDIISRIKQNEFETTLKLPTEDEMIEYYQVSRNTVRSALKLLTSQGIIFSRQGSGFYIRQRS | -0.117
48 | HMALALSGVDLNRNRLTISWQTSKGVSYRVQRSSDLQSWTDVGAERLGNGNRLSHTQALNTESAFLRVII | -0.674
49 | HMALEGTLARVSVRIPESGVGEIIFSLGGVRRSEAARSVSGRAIPRGTEVVILSYERGIATVQPYEELLTN | -0.256
50 | HMALEVPGIAKDKIYRIFGQLYERQQKWEDAIDYYNRAVFFTLSGTDMILYQEDLSRVKQKISL | -0.152
51 | HMALKRVAPQGEDKLSAQLDGVEFDKLIPWLGMLEHDHRIAIVNLSIDRANATGLVNARVIL | 0.251
52 | HMALKSGVIAHAVDDAVMRGLNVFTVSDDGSIVSMKDNDIVLGKDGKSPYSVSEWLEELKPNVPHWFG | -0.256
53 | HMALKSYEDMVGKTGVAYTVLRPSGKVIINDELFDATARSGMIEKGNEVIIYDYKNAQLIVEK | -0.518
54 | HMALPASLSPREREIVSLISQGKTNSEIASLLYISVPTVKTHISNIFQKTGVSNRTSLLNRLRMS | -0.0542
55 | HMALPHEIKQKWLEEIMTMLRSSDSVTINKVYLHFPENKSHWVDEILTDLSNTHMITRQHDFIRLKN | -0.221
